Laboratory results reported in US20210155689A1 (SHANGHAI PHARMAEXPLORER, published 2021).

Experiments:
[1] = molecular target: human LAG-3 on cells (HEK293-hLAG-3 stable cell line) (human) (UniProt P18627); assay: FACS, HEK293-hLAG-3, antibody 0.32 nM
[2] = molecular target: human LAG-3 on cells (HEK293-hLAG-3 stable cell line) (human) (UniProt P18627); assay: FACS, HEK293-hLAG-3, antibody 0.013 nM
[3] = molecular target: LAG-3-hFc protein (human LAG-3 extracellular region with hFc tag) (human) (UniProt P18627); assay: ELISA, inhibition of LSECtin-His binding to coated LAG-3-hFc, antibody 40.000 nM, replicate 1
[4] = molecular target: LAG-3-hFc protein (human LAG-3 extracellular region with hFc tag) (human) (UniProt P18627); assay: ELISA, inhibition of LSECtin-His binding to coated LAG-3-hFc, antibody 0.320 nM, replicate 2
[5] = molecular target: human LAG-3 on cells (HEK293-hLAG-3 stable cell line) (human) (UniProt P18627); assay: FACS, HEK293-hLAG-3, antibody 40 nM
[6] = molecular target: LAG-3-hFc protein (human LAG-3 extracellular region with hFc tag) (human) (UniProt P18627); assay: ELISA, inhibition of LSECtin-His binding to coated LAG-3-hFc, antibody 0.064 nM, replicate 1
[7] = molecular target: LAG-3-hFc protein (human LAG-3 extracellular region with hFc tag) (human) (UniProt P18627); assay: FACS, inhibition of LAG-3-hFc binding to MHC II on Raji cells, antibody 7.407 nM
[8] = molecular target: T1, human LAG-3 on cells (HEK293-hLAG-3 stable cell line) (human, UniProt P18627 23-525); assay: FACS, HEK293-hLAG-3, antibody 8 nM
T1 sequence: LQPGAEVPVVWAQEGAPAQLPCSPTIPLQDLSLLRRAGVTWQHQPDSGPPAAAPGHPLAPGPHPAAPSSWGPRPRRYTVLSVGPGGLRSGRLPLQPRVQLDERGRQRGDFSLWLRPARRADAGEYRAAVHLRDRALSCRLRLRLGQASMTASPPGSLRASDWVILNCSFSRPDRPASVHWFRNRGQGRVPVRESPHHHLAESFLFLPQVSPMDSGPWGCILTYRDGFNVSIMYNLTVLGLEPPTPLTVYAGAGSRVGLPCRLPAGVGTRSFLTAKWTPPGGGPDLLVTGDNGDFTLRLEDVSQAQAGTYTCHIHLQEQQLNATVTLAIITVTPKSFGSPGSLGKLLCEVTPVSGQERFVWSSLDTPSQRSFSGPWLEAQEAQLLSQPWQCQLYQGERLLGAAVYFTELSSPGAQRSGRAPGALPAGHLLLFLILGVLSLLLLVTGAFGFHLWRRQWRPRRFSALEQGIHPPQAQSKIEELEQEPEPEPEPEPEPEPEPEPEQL

[9] = molecular target: T1, human LAG-3 on cells (HEK293-hLAG-3 …); assay: FACS, HEK293-hLAG-3, antibody 8 nM; remark: listed apart in the source
From the text: (§1) A. The binding of antibodies to LAG-3 expressing cells was detected by Flow cytometry (FACS), wherein the method was according to that of Example 5.

[10] = molecular target: T1, human LAG-3 on cells (HEK293-hLAG-3 …); assay: FACS, HEK293-hLAG-3, antibody 0.32 nM
From the text: as §1

[11] = molecular target: T1, human LAG-3 on cells (HEK293-hLAG-3 …); assay: FACS, HEK293-hLAG-3, antibody 0 nM

With hIgG control (antibody) the Mean fluorescence intensity [1] was 4, the Mean fluorescence intensity [2] was 3 and the Inhibition rate (%) [3] was 0.7%. It also gave an Inhibition rate (%) [4] of -10.1%, a Mean fluorescence intensity [5] of 4 and an Inhibition rate (%) [6] of -26.4%. For the same molecule, the Inhibition rate (%) [7] was 8.8%.

B1: 556F6B8 mouse-human chimeric antibody (antibody, V domains shown)
VH: RVQLKQSGPGLVQPSQSLSITCTVSGFSLIKYGVHWVRQSPGEGLEWLGVIWRGGITDYNAAFMSRLSITKDNSKSQVFFKMNSLQADDTAIYYCAKWDGPLAMDYWGQGTSVTVSS
VL: DIVMTQSHKFLSTSVGDRVSITCKASQDVGTTVAWYQQKPGQSPKLLIYWASTRHTGVPDRFTGSGSGTDFTLTISNVQSEDLADYFCQQYSSYPYTFGGGTKLEIK
notes: also called mAb123-556F6B8; 556F8B8
In the case of B1, the Mean fluorescence intensity [8] is reported as 90.

B2: 405B8H3 mouse-human chimeric antibody (antibody, V domains shown)
VH: QVQLQQSGAELVRPGASVTLSCKASGYTFTDYEMHWVKQTPVHGLEWIGATDPETGNSAYNQKFKGKAIMTADKSSSTAYMELRSLTSEDSAVYYCISTGWNDWGQGTSLTVSS
VL: DIKMTQSPSSMYASLGERVTITCKASQDINSYLSWFQQKPGKSPKTLIYRADRLLDGVPSRFSGSGSGQDYSLTISSLEYGDMGIYYCLQYDEFPYTFGGGTKLEIK
notes: also called mAb103-405B8H3
B2 showed a Mean fluorescence intensity [9] of 226, a Mean fluorescence intensity [10] of 54 and a Mean fluorescence intensity [11] of 4.
